Experimental data as given in US20110318339A1 (FABRUS, published 2011).

Tests used:
[1] = biological target: T1, recombinant human DLL4 (Cat# 1506-D4/CF, R&D Systems) (human, UniProt Q9NR61 27-529); assay: ELISA, DLL4 coated, Fab 50 nM
T1 construct: Bought protein; also called hDLL4; rHuman DLL4
Protocol: (§1) The plate was blocked by adding 1% BSA in Tris-buffered Saline Tween (TBST) and incubating for 1 hour at room temperature followed by washing 2 times with 150 μl TBST. A Fab antibody was serially diluted in 1% BSA in PBS. A 50 μl aliquot of each serial dilution was added, in triplicate, to each well and the plate was incubated for 1 hour at room temperature followed by washing 2 times with TBST. 50 μl of either goat anti-human kappa HRP conjugated secondary antibody (Cat # A7164-1 mL, Sigma-Aldrich) or goat anti-human lambda HRP conjugated secondary antibody (Cat # L1645-1 ml, Sigma-Aldrich), diluted 1:1000 in 1% BSA in PBS, was added to each well and the plate was incubated for 30 minutes at room temperature followed by washing 3 times with 200 μl TBST. Finally, 50 μl TMB one-component reagent (Cat # TMBW-1000-01, BioFax) was added and allowed to develop for 2 minutes at room temperature. The reaction was immediately halted by the addition of 50 μl 0.5M H₂SO₄ and the absorbance at 450 nm was measured using an ELISA plate reader.

[2] = biological target: T1, recombinant human DLL4 (Cat# …); assay: ELISA, DLL4 coated, Fab 75 nM
[3] = biological target: T1, recombinant human DLL4 (Cat# …); assay: ELISA, DLL4 coated, Fab 50 nM; remark: listed apart in the source
Protocol: as §1

[4] = biological target: T1, recombinant human DLL4 (Cat# …); assay: ELISA, DLL4 coated, Fab 25 nM
Method in brief: (§2)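 Colorimetric ELISA: HRP goat anti-human kappa or lambda (1:1000) detects Fab bound during a 1 h room-temperature incubation of serial dilutions; TMB develops 2 min before 0.5M H₂SO₄ stop and 450 nm read.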

[5] = biological target: T1, recombinant human DLL4 (Cat# …); assay: ELISA, DLL4 coated, Fab 100 nM
[6] = biological target: T1, recombinant human DLL4 (Cat# …); assay: ELISA, DLL4 coated, Fab 100 nM; remark: listed apart in the source
Method in brief: as §2

[7] = biological target: T1, recombinant human DLL4 (Cat# …); assay: ELISA, DLL4 coated, Fab 12.5 nM
Protocol: as §1

[8] = biological target: T1, recombinant human DLL4 (Cat# …); assay: ELISA, DLL4 coated, Fab 6.25 nM
Protocol: as §1

[9] = biological target: T1, recombinant human DLL4 (Cat# …); assay: ELISA, DLL4 coated, Fab 3.125 nM
Protocol: as §1

[10] = biological target: T1, recombinant human DLL4 (Cat# …); assay: SPR (ProteOn), hDLL4 amine-coupled on chip
Method in brief: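 Binding constants came from global fits of response data per surface. Three densities of amine-immobilised DLL4 were used, and Fabs started at 1 μM with 3-fold dilutions. Running buffer was HEPES 10 mM pH 7.4, NaCl 150 mM, Tween-20 0.01%, BSA 0.1 mg/ml at 25° C on a GLM chip.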

[11] = biological target: T1, recombinant human DLL4 (Cat# …); assay: SPR (ProteOn), hDLL4 amine-coupled on chip; 2-site binding, 10% of it by the footnote
Protocol: (§3) In this example, the binding affinities of selected anti-DLL4 Fabs to recombinant human DLL4 (hDLL4, Cat# 1506-D4/CF, R&D Systems) were analyzed using Surface Plasmon Resonance (SPR) (Biosensor Tools, Salt Lake City, Utah). The Fabs analyzed include germline-derived antibodies and germline-modified DLL4 antibodies. Recombinant hDLL4 was immobilized on a SPR chip using amine coupling at three different surface densities. The Fabs were serially diluted 3-fold, with an initial concentration of 1 μM. Binding studies were run on a ProteOn system using a GLM sensor chip in 10 mM HEPES, pH 7.4, 150 mM NaCl, 0.01% Tween-20, and 0.1 mg/ml BSA at 25° C. The response data from each surface was globally fit to determine the binding constants.

[12] = biological target: T1, recombinant human DLL4 (Cat# …); assay: SPR (ProteOn), hDLL4 amine-coupled on chip; 2-site binding, 89% of it by the footnote
Protocol: as §3

[13] = biological target: T2, DLL4 DSL (amino acid: 1-217) construct (human, UniProt Q9NR61 26-217); assay: Western blot, non-reducing
T2 construct: also called DSL construct; not shown: myc tag (and his tag) added by the PCR primers
Protocol: (§4) Media from transfected CHO cells was collected after 7 days. To enrich for the DLL4 protein, 1 ml aliquots of each sample were batch bound with 50 μl of Talon Resin for 30 minutes. To confirm protein production media samples were tested with mouse anti-c-myc mAb (Genescript; Catalog # A00704). Samples were washed and then boiled with loading dye in the presence or absence of DTT. A gel was run on each of the 2 samples for each condition: with DTT and without DTT. […] For detection goat anti-mouse HRP, goat anti-kappa HRP, and goat anti-lambda HRP were used, respectively.

[14] = biological target: T3, DLL4 Egf1 (amino acid: 1-251) construct (human, UniProt Q9NR61 26-251); assay: Western blot, non-reducing
T3 construct: also called EGF1 construct; not shown: myc tag (and his tag) added by the PCR primers
Protocol: as §4

[15] = biological target: T4, DLL4 Egf2 (amino acid: 1-282) construct (human, UniProt Q9NR61 26-282); assay: Western blot, non-reducing
T4 construct: also called EGF2 construct; not shown: myc tag (and his tag) added by the PCR primers
Protocol: as §4

ELISA absorbance at 450 nm [1] [A450]	ELISA absorbance at 450 nm [2] [A450]	ELISA absorbance at 450 nm [3] [A450]	ELISA absorbance at 450 nm [4] [A450]	ELISA absorbance at 450 nm [5] [A450]	ELISA absorbance at 450 nm [6] [A450]	ELISA absorbance at 450 nm [7] [A450]	ELISA absorbance at 450 nm [8] [A450]	ELISA absorbance at 450 nm [9] [A450]	koff [10] [s⁻¹]	kon [10] [M⁻¹ s⁻¹]	Kd [11] [nM]	Kd [12] [nM]	binding result [13]	binding result [14]	binding result [15]	Binder
0.202	0.268	0.507	0.31	0.259	0.686	0.192	0.125	0.096	0.0689	444000	14	155				Fab VH1-46_IGHD6-6*01_IGHJ1*01 S102A/S103P/S104F/H111F & L6_IGKJ1*01 S28N/S30D/S31H (Fab, V domains shown, Fab made in E. coli: VH on CH1 with His6 and Flag tags (Plasmid A), VL on kappa CL (Plasmid C); also called H: APFF & L: NDH) VH: QVQLVQSGAEVKKPGASVKVSCKASGYTFTSYYMHWVRQAPGQGLEWMGIINPSGGSTSYAQKFQGRVTMTRDTSTSTVYMELSSLRSEDTAVYYCAREEYAPFSAEYFQFWGQGTLVTVSS VL: EIVLTQSPATLSLSPGERATLSCRASQNVDHYLAWYQQKPGQAPRLLIYDASNRATGIPARFSGSGSGTDFTLTISSLEPEDFAVYYCQQRSNWPPWTFGQGTKVEIKR
													no binding (tested: 20 nM Fab)	no binding (tested: 20 nM Fab)	no binding (tested: 20 nM Fab)	Fab VH5-51_IGHD5-18*01>3_IGHJ4*01 H:KT TRV & V3-4_IGLJ1*01 L:LP S52G (Fab, V domains shown, Fab, lambda light chain; also called Fab H:KT TRV & L:LP S52G) VH: EVQLVQSGAEVKKPGESLKISCKTSGYRFTSYWIVWVRQMPGKGLEWMGIIYPGDSDTRYSPSFQGQVTISADKSISTAYLQWSSLKASDTAMYYCARRKYSYTYDYFDYWGQGTLVTVSS VL: QTVVTQEPSFSVSPGGTVTLTCGLSSGSVSTSYYPSWYQQTPGQAPRTLIYGTNTRSSGVPDRFSGSILGNKAALTITGAQADDESDYYCLLYMGPGISYVFGTGTKVTVL
